Assay results from publication PMC11711466, “Reconstitution of human DNA licensing and the structural and functional analysis of key intermediates”.

B1: 158 bp lamin B2 (dsDNA)
DNA 1: GCCTGCCGCGCATGCGCACGAGGCACCCGGCGCGTCTATACAGCGTGTTGCCGCCGGGGCGGAGCCCGGTCGCATCACGTGACGAAGAGTCAGCTTGTGCAACAGCGTCGGAGGCTCACTAGAAAAAAAAGGGCAGGGTCCCATGCATCGCCTGGGTC
DNA 2: GACCCAGGCGATGCATGGGACCCTGCCCTTTTTTTTCTAGTGAGCCTCCGACGCTGTTGCACAAGCTGACTCTTCGTCACGTGATGCGACCGGGCTCCGCCCCGGCGGCAACACGCTGTATAGACGCGCCGGGTGCCTCGTGCGCATGCGCGGCAGGC
B2: 90 bp ARS1 (dsDNA)
DNA 1: GTTATTTTACAGATTTTATGTTTAGATCTTTTATGCTTGCTTTTCAAAAGGCCTGCAGGCAAGTGCACAAACAATACTTAAATAAATACTA
DNA 2: TAGTATTTATTTAAGTATTGTTTGTGCACTTGCCTGCAGGCCTTTTGAAAAGCAAGCATAAAAGATCTAAACATAAAATCTGTAAAATAAC

Assays:
[1] = target: hMCM2-7 (human, UniProt P49736;P25205;P33991;P33992;Q14566;P33993 1-904;1-808;1-863;1-734;1-821;1-719); test: negative stain EM, in-solution loading; double hexamers; loaded by ORC1-5, ORC6, CDC6, CDT1deltaN, ATP; more than without ORC6; 25 mM HEPES-KOH pH 7.5, 250 mM KGlu, 1 mM DTT, 4 mM MgOAc, 0.1% Triton X-100, 1 mM ATP or ATPgS, 30 C; high-salt wash adds 300 mM NaCl; in-solution: HEPES-NaOH, 0.05% Triton X-100; conditions: protein: recombinant; tags: N-terminal Twin-Strep MCM2; N-terminal 8xHis MCM4; chain copies: 2;2;2;2;2;2; blunt
[2] = target: hORC1-5;hCDC6 (human;human, UniProt Q13415;Q13416;Q9UBD5;O43929;O43913;Q99741 1-861;1-577;1-711;1-436;1-435;1-560, |); test: pull-down via Strep-hORC1; CDC6 retained with ORC1-5 only with DNA; 25 mM HEPES-KOH pH 7.5, 250 mM KGlu, 1 mM DTT, 4 mM MgOAc, 0.1% Triton X-100, 1 mM ATP or ATPgS, 30 C; high-salt wash adds 300 mM NaCl; in-solution: HEPES-NaOH, 0.05% Triton X-100; conditions: protein: recombinant;recombinant; tags: N-terminal Twin-Strep on ORC1 (removed with SUMOstar protease in some preps);GST, cleaved; copies: 1;1;1;1;1;1; blunt

Binder	binding result [1]	binding result [2]
B1	binds	
B2		binds
